Experimental findings from article PMC11259706 (The Journal of Biological Chemistry, 2024) are described below.

Primed or numbered codes have the meaning given here. Where no end group is shown, it is not given here. 5FAM′ = 5-carboxyfluorescein; Ahx = NCCCCCC(=O)O

For assay [1], the target named is T1, full-length PP5 (Homo sapiens, UniProt P53041).
T1 construct: His-tag with TEV cleavage site (N, cleaved yes); made in house; host or cells: Escherichia coli BL21 (DE3)
T1 sequence (P53041 1-499): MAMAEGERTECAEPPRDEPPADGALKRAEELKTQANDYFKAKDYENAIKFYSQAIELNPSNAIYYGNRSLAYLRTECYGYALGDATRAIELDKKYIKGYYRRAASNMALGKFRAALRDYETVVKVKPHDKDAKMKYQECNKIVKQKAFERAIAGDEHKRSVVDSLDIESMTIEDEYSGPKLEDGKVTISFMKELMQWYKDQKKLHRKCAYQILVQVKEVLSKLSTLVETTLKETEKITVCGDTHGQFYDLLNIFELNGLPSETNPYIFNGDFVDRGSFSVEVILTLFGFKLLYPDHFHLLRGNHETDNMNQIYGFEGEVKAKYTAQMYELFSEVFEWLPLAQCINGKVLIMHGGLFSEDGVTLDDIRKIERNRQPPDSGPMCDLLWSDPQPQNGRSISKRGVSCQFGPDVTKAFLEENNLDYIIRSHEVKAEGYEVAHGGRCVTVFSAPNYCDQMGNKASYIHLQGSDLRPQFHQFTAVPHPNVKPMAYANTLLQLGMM
The experiment in a line: Fluorescence polarization (FP) saturation binding of fluorescent tracers. To be noted: for direct binding of tracer relative to natural sequence: FP direct binding, n = 4. The protocol: (§1) These probes were stored as 10 mM DMSO stocks at −30 °C. […] Each well received PP5 (5 μl) from a 3-fold dilution series prepared using the assay buffer. […] The plate was shielded from light and allowed to incubate at room temperature for 15 min, a duration determined to reach equilibrium during assay development. All experiments were conducted in 384-well, black, low-volume, round-bottom plates (Corning; catalog number = 4511). […] Data analysis was carried out using GraphPad Prism 6.

The next assay relates to HEK293T cells. Nature of the assay: Global translation assay. The assay is classed as cell-based. To be noted: 50 μg/ml, compared to DMSO control, three independent replicates. As to the method: HEK293T cells (ATCC) were cultured in Dulbecco’s Modified Eagle Medium supplemented with 10% fetal bovine serum and 1% penicillin/streptomycin. These cells were maintained at 37 °C/5% CO2 in a humidified incubator. Cells were negative for mycoplasma contamination (MicroSeq; ThermoFisher Scientific) at the start of the experiments, and they were used without further authentication.
The global translation assay (Abcam; ab273286) was used to measure protein synthesis according to the manufacturer’s specifications. Briefly, in this method, O-propargyl-puromycin is used to trap actively translating ribosomes, followed by addition of a fluorescent Click probe, such that suppression of translational is measured as a decrease in fluorescence. HEK293T cells or HEK293T cells overexpressing FLAG-PP5 were cultured as above. Cells were incubated with the supplied protein label reagent and incubated for 24 h, after which the cells were washed with culture media and fixed/permeabilized for 15 min in the dark. Click reactions were carried out for 30 min, and the plate fluorescence measured at Ex/Em 494/521 nm in a SpectraMax M5 multimode plate reader.

The target of the next assay is T2, PP5 (Homo sapiens, UniProt P53041).
T2 construct: His-tag with TEV cleavage site (N, cleaved yes); made in house; host or cells: Escherichia coli BL21 (DE3)
T2 sequence (P53041 1-499): T1 sequence (P53041 1-499)
The experiment in a line: pNPP colorimetric phosphatase assay. The class given is biochemical. To be noted: peptide 100 μM. As to the method: To measure PP5’s enzyme activity, pNPP was used as substrate, as previously described ([24], [42]). Briefly, purified PP5 (1 μM) was incubated with peptides (100 μM) in 40 mM Hepes, 20 mM KCl, 5 mM MnCl2, and 1 mM DTT, pH 7.5 at 20 °C in 96-well microtiter plates (total volume 50 μl). Reactions were then initiated by addition of the pNPP substrate at concentrations from 0 to 60 mM. After 30 min, reactions were quenched with 2N NaOH (100 μl), and the release of p-nitrophenol was recorded at 410 nm (ε = 15,100 M − 1 cm−1) on a Molecular Devices M5 plate reader. Enzyme parameters (e.g., Km, kcat) were calculated using the Michaelis–Menten equation in Graphpad Prism 6.

The target in assay [2] is T1, full-length PP5. The experiment in a line: FP competition studies. To be noted: for affinity relative to natural MEEVD in competition FP: acetylated pentapeptides competing with Hsp90 tracer, n = 4. The class given is binding. As to the method: as §1
Samples were incubated for 5 min prior to measurements. Results were analyzed as above.

For assay [3], the target named is protein phosphatase 5 (PP5), human, full-length (human) (UniProt P53041). Nature of the assay: fluorescence polarisation; competition (Fig. 1B, C, E, F): unlabelled peptide varied, PP5 at a concentration equivalent to the Kd, tracer 20 nM (tracer not named for these panels), 5 min. In general terms: In fluorescence polarisation assays a small probe gives low polarisation when free and higher when bound to something large.

Assay [4] deals with T3, protein phosphatase 5 (PP5), human, full-length (human, UniProt P53041 1-499).
T3 sequence (looked up): T1 sequence (P53041 1-499)
The experiment in a line: cell-based or functional assay.

Assay [5] deals with T4, protein phosphatase 5 (PP5), human, full-length (human, UniProt P53041 1-499).
T4 chain: T1 sequence (P53041 1-499)
Nature of the assay: FP.

The target of assay [6] is T3, protein phosphatase 5 (PP5), human, …. Nature of the assay: fluorescence polarisation; saturation binding: tracer 20 nM, 3-fold dilution series of PP5; 50 mM Hepes, 75 mM NaCl, 0.001% Triton X-100, pH 7.4; room temperature, 15 min. To be noted: both partners purified.
For assay [7] the target is unchanged. Nature of the assay: fluorescence polarisation; competition with the Hsp90 tracer (Fig. 2C): PP5 at a concentration equivalent to the Kd, tracer 20 nM, 5 min. To be noted: both partners purified.

A word on the Kd: it is a measure of binding affinity in units of concentration. One may read the Ki as a measure of affinity in units of concentration, obtained from inhibition or displacement.

5FAM-AHX-WDDID: the “direct binding of tracer relative to natural sequence” value on full-length PP5 [1] is listed as “bound tighter than the natural sequence”.
`C[C@@H]1C[C@@H]([C@H](O)CC2CC(=O)NC(=O)C2)C(=O)[C@@H](C)C1` [cycloheximide] showed a decrease in translation in the assay with HEK293T cells of 40%.
Consider LSLLA, for which the “effect on PP5 enzyme activity” value at PP5 (DMSO 1%) is given as “did not”. Further, the “competition with ELP1 tracer for binding to PP5” value on full-length PP5 [2] (tracer 5FAM-AHX-LSLLD, unlabeled peptide, three independent experiments in technical triplicates) was “completely suppressed binding”.
As for LSLLD [LSLLD], the “effect on Km of PP5” value at PP5 (pNPP substrate) is “both the kcat and Km were improved”. At full-length PP5 [1] (restates Fig. 5B, measured with tracer 5FAM-AHX-LSLLD, read-out: Kd of ELP1 C-terminal motif for PP5's TPR domain (restated)), the Kd was ~4 µM.
“Ac-GSGPTAEEVD [Hsp70 peptide, P5 isoleucine mutation]”: the Ki at full-length PP5 [2] (read-out: Ki, FP competition (truncations and alanine scan)) is ~13.6 µM.
“WEEVD [optimized acetylated pentapeptide]”: on full-length PP5 [2], the “affinity relative to natural MEEVD in competition FP” value is on record as “tighter affinity than the natural MEEVD”.
Same read-out and setting: the same measure for “WDDLD [optimized acetylated pentapeptide]”: “tighter affinity than the natural MEEVD”.
In the case of 5FAM-AHX-WDDPD, at full-length PP5 [1], the “direct binding of tracer relative to natural sequence” value is on record as “bound tighter than the natural sequence”.
As for “Hsp70 peptide with the P5 isoleucine replaced by alanine”, the Ki in assay [3] was 13.6 µM.
With Ac-WDDVD [optimized acetylated pentapeptide WDDVD], in assay [4], the “kcat of PP5 phosphatase activity on pNPP with peptide (100 μM); 2.5-fold” value is 0.24 s⁻¹. Also, the Ki in [5] turned out to be 30 nM.

B1: fluorescent tracer 5FAM-AHX-WDDID (peptide)
peptide: {5FAM′-Ahx}-WDDID
notes: also called WDDID tracer; source: synthetic peptide
Consider B1, for which, in assay [6], the binding result is listed as “binds”.

B2: fluorescent tracer 5FAM-AHX-WDDPD (peptide)
peptide: {5FAM′-Ahx}-WDDPD
notes: also called WDDPD tracer; source: synthetic peptide
In the case of B2, the binding result in assay [6] is “binds”.

B3: optimized acetylated pentapeptide WDDLD (peptide)
peptide: Ac-WDDLD
notes: optimized EEVD-like pentapeptide from the PSSCL screen; source: synthetic peptide
Turning to B3, the binding result in assay [7] was “binds”.

B4: optimized acetylated pentapeptide WDDID (peptide)
peptide: Ac-WDDID
notes: as for B3
B4: the binding result in assay [7] is recorded as “binds”. In [5], this molecule showed a Ki of 60 nM.

B5: optimized acetylated pentapeptide WDDPD (peptide)
peptide: Ac-WDDPD
notes: as for B3
B5: the binding result in assay [7] is on record as “binds”. The same molecule returned a Ki in assay [5] of 40 nM.
Turning to TMYFA (fluorescent label (tracer)) [fluorescent tracer of the AGO1 C-terminal five amino acids (negative control)], in assay [6], the Kd is > 100000 nM.
As for LSLLD [ELP1 C-terminal pentapeptide LSLLD (unlabelled)], in assay [4], the “kcat/Km of PP5 phosphatase activity on pNPP with peptide (100 μM); 0.49 μM^−1sec^−1 without peptide” value stood at 1.28 μM^−1sec^−1.

B6: fluorescent tracer of the DDCP C-terminal sequence WKPVD (peptide)
peptide: WKPVD
modifications: also: fluorescent label (tracer), position not given here
notes: the label DDCP could not be tied to an entry; Probably 5FAM-AHX-labelled like the ELP1 tracer; also called DDCP tracer; source: synthetic peptide
On to B6, for which the Kd in assay [6] was > 100000 nM.

B7: ELP1 tracer 5FAM-AHX-LSLLD (peptide)
peptide: {5FAM′-Ahx}-LSLLD
notes: C-terminal five amino acids of elongator acetyltransferase complex subunit 1 (ELP1; IKBKAP); also called LSLLD tracer; source: synthetic peptide
B7 showed a Kd in assay [6] of 4400 ± 800 nM.

B8: Hsp70 tracer 5FAM-AHX-IEEVD (peptide)
peptide: {5FAM′-Ahx}-IEEVD
notes: also called Hsp70 IEEVD tracer; source: synthetic peptide, custom synthesized by GenScript
The molecule B8 gave a Kd in [6] of 941 ± 70 nM.

B9: fluorescent tracer 5FAM-AHX-WEEVD (peptide)
peptide: {5FAM′-Ahx}-WEEVD
notes: also called WEEVD tracer; source: synthetic peptide
B9: binding in assay [6] was put at a Kd of 15 ± 10 nM.

B10: fluorescent tracer 5FAM-AHX-WDDVD (peptide)
peptide: {5FAM′-Ahx}-WDDVD
notes: also called WDDVD tracer; source: synthetic peptide
For the molecule B10, the Kd in assay [6] was 17 ± 10 nM.
As for DSDSD (fluorescent label (tracer)) [fluorescent tracer of the U520 C-terminal five amino acids], the Kd in [6] is > 100000 nM.
